The record followed here is article PMC3510474, “Distinct gating mechanisms revealed by the structures of a multi-ligand gated K^+ channel” (eLife, 2012).

In experiment [1] the target is full-length GsuK channel, L97D mutant (Geobacter sulfurreducens). Description: crystal structure; full-length channel in DM with E. coli polar lipids, about 6 mg/ml, 20°C, 13–18% PEG3350, 250–500 mM KSCN, 100 mM CHES pH 9.0; space group C2, four subunits in the asymmetric unit as two half channels; L97D also co-crystallised with 1 mM ADP or NAD+.
The target of experiment [2] is GsuK intracellular subunit (Geobacter sulfurreducens). In words: SEC; Superdex-200 (10/30) in 50 mM Tris–HCl pH 8.0, 250 mM KCl, 2 mM DTT, 4 mM LDAO (GsuK intracellular subunit). (In general: SEC sorts molecules by how far they enter the pores of the column.)
Experiment [3] shares this target. In words: crystal structure; GsuK intracellular subunit, about 8 mg/ml in LDAO, sitting drop at 20°C, 20–23% PEG3350, 120 mM KCl, 80 mM NaNO3, 1% glycerol, 100 mM Bis-Tris propane pH 8.5; space group I222, four subunits forming a gating ring in the asymmetric unit; 3.0 Å.
Experiment [4] has as its target T1, GsuK (Geobacter sulfurreducens, UniProt Q74FS9, E52A/L97D, form not given).
T1 construct: gene GSU0527; full-length channel from Ala9 with extra N-terminal MQRGS; C-terminal His-tag cut by thrombin; E. coli BL21(DE3); tetramer; model residues 17-564
In words: X-ray crystal structure, […] Å (co-crystallization). As to conditions: 1 mM NAD+, pH 9.0; Ca2+-bound closed gating ring; nucleotide site on RCK2, nicotinamide beneath RCK1 helix αF; partial occupancy; allosteric. Type of experiment: binding.

Experiment [5] addresses full-length GsuK channel, wild type (with E52A and Q77E or R) (Geobacter sulfurreducens). Description: SEC; Superdex-200 (10/30) in 20 mM CHES pH 9.0, 150 mM KSCN, 0.1 mg/ml E. coli polar lipid, 2 mM DTT, 4 mM DM (full-length GsuK channel).
The target is the same in experiment [6]. In words: crystal structure; full-length channel in DM with E. coli polar lipids, about 6 mg/ml, 20°C, 13–18% PEG3350, 250–500 mM KSCN, 100 mM CHES pH 9.0; space group C2, four subunits in the asymmetric unit as two half channels; L97D also co-crystallised with 1 mM ADP or NAD+.
The target in experiment [7] is T1, GsuK. In words: X-ray crystal structure, […] Å (co-crystallization). Type of experiment: binding. As to conditions: 1 mM ADP, pH 9.0; Ca2+-bound closed gating ring; nucleotide site on RCK2; allosteric.

T1 sequence (Q74FS9 entry or part of it E52A/L97D, form open): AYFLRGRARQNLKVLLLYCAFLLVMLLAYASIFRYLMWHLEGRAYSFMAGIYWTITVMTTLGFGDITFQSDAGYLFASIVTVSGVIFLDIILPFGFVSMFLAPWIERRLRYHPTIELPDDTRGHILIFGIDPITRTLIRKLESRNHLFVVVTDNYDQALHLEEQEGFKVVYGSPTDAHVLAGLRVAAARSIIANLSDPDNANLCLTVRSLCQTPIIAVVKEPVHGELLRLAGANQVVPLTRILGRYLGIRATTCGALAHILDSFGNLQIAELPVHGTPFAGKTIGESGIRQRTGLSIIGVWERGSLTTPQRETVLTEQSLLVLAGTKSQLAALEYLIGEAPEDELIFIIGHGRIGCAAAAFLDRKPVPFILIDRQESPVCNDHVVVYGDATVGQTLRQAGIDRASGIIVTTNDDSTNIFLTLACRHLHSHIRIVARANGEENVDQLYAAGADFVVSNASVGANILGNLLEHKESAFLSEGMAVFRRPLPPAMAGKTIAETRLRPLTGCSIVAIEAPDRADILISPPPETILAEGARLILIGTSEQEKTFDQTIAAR

What is called stoichiometry N is a count of units in the complex or per binding partner. For the molecule “full-length GsuK channel, L97D mutant (natural protein)”, the stoichiometry N in experiment [1] was determined as 4.
Take “GsuK intracellular subunit (domain or fragment)”: the stoichiometry N in experiment [2] and in experiment [3] was 4 in each case.
Take `NC(=O)c1ccc[n+]([C@@H]2O[C@H](COP(=O)(O)OP(=O)(O)OC[C@H]3O[C@@H](n4cnc5c(N)ncnc54)[C@H](O)[C@@H]3O)[C@@H](O)[C@H]2O)c1` [NAD^+]: the “X-ray crystal structure, 3.2 Å (co-crystallization)” value on GsuK [4] was “we also co-crystallized the L97D mutant with ADP and NAD^+”.
As for “full-length GsuK channel, wild type (with E52A and Q77E or R) (natural protein)”, the stoichiometry N in experiment [5] and in experiment [6] was 4 throughout.
As for `Nc1ncnc2c1ncn2[C@@H]1O[C@H](COP(=O)(O)OP(=O)(O)O)[C@@H](O)[C@H]1O` [ADP], the “X-ray crystal structure, 2.8 Å (co-crystallization)” value at GsuK [7] was “we also co-crystallized the L97D mutant with ADP and NAD^+”.
